This note sets out measurements from article PMC11407090, “Kinetic and in silico structural characterization of norbelladine O-methyltransferase of Amaryllidaceae alkaloids biosynthesis” (The Journal of Biological Chemistry, 2024).

Substrate in series [1]: Oc1ccc(CCNCc2ccc(O)c(O)c2)cc1
Briefly: LC-MS/MS methyltransferase assay, nonlinear regression. Format: biochemical, Narcissus papyraceus. Conditions: SAM as methyl donor, Mg^2+, product 4'-O-methylnorbelladine, optimized condition pH 7.4, 45 °C, 30 min. From the text:
(§1) LC-MS/MS methyltransferase assay, nonlinear regression on NpOMT

Substrate in series [2]: O=Cc1ccc(O)c(O)c1
The series is described as above. Type of series: biochemical, Narcissus papyraceus. The settings on record: SAM as methyl donor, Zn^2+, product vanillin (3-O-methylation, major product), optimized condition pH 7.4, 45 °C.
Excerpt: as §1

B1: NpOMT (Narcissus papyraceus) (protein)
chain: MGASQDDYALIHKNILHSEELLKYILETSAYPREHEQLKGLREVTEKHEWSSALVPADEGLFLSMLLKLMNAKRTIEIGVYTGYSLLTTALALPEDGKITAIDVNKSFFEIGLPFIQKAGVEHKINFIESEALPVLDQMVQEMKEEDLYDYAFVDADKSNYANYHERLVKLVRVGGAILYDNTLWYGSVAYPEYPGLHPEEEVARLSFRQLNTLLAADPRVEISQVSIGDGVTICRRLY
notes: homodimer only modelled
The term Km denotes the concentration of substrate that gives half-maximal velocity. Broadly, the Vmax is the top rate of the reaction or transport when substrate is in excess. Broadly, the kcat is the number of substrate molecules converted per active site and unit of time at saturation. Broadly, the kcat/Km is the second-order rate constant that governs catalysis at low substrate concentration. B1: in series [1], the Km stood at 169 ± 19 µM, the Vmax came out at 10.9 µM/min, the kcat was found to be 0.0362 ± 0.004 s⁻¹ and the kcat/Km amounted to 214 M⁻¹ s⁻¹. Besides, in series [2], the Km came to 491 ± 51 µM, the Vmax was found to be 19.1 µM/min, the kcat was found to be 0.0637 ± 0.0025 s⁻¹ and the kcat/Km was determined as 130 M⁻¹ s⁻¹.
